Assay results: patent publication US20220380436A1 (BOARD OF TRUSTEES OF THE UNIVERSITY OF ILLINOIS, published 2022)

Target: T1, human PDGFRβ isoform 1, myc-tagged, expressed on Expi293F cells (human, UniProt P09619 33-1106)
T1 construct: not shown: N-terminal myc-tag and linker
Assay: flow cytometry, gH/gL/gO-sfGFP medium on Expi293F cells expressing PDGFRβ (negative control)

T1 sequence (P09619 33-1106): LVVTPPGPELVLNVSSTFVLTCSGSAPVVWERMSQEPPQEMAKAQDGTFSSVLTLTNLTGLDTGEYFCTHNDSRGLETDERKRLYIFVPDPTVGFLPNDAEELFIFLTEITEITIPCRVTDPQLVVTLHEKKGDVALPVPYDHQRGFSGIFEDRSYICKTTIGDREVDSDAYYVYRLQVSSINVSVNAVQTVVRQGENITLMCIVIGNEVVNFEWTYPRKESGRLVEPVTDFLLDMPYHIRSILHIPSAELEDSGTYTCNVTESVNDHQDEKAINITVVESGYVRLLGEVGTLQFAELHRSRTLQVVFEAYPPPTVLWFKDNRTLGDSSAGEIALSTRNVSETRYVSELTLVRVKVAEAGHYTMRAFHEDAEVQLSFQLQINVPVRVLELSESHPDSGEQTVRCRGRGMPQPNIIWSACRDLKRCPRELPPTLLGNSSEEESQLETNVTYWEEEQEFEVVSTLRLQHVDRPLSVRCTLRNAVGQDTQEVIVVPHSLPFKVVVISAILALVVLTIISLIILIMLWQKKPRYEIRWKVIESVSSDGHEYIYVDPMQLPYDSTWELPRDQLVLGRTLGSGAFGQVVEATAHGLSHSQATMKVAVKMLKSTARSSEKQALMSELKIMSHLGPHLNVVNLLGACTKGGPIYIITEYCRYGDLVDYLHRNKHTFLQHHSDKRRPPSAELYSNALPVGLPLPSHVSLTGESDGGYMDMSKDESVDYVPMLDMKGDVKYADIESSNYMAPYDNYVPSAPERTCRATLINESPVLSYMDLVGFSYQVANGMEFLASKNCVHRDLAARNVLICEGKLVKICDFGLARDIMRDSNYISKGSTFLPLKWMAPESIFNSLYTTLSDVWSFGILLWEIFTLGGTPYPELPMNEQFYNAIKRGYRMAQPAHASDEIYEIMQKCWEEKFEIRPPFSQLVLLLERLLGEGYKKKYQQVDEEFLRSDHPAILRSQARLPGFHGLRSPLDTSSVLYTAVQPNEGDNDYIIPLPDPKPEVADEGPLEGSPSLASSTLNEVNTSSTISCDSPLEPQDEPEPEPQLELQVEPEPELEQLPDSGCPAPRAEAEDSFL

B1: soluble HCMV glycoprotein trimer gH/gL/gO-sfGFP from strain TB40/E (other)
chain 1: […]
chain 2: VAVSVAPTAAEKVPAECPELTRRCLLGEVFQGDKYESWLRPLVNVTGRNGPLSQLIRYRPVTPEAANSVLLDDAFLDTLALLYNNPDQLRALLTLLSSDTAPRWMTVMRGYSECGDGSPAVYTCVDDLCRGYDLTRLSYGRSIFTEHVLGFELVPPSLFNVVVAIRNEATRTNRAVRLPVSTAAAPEGITLFYGLYNAVKEFCLRHQLDPPLLRHLDKYYAGLPPELKQTRVNLPAHSRYGPQAVDAR
chain 3: […]
notes: also called TB40/E trimer; CMV trimer; not shown: C-terminal FLAG tag; C-terminal superfolder GFP (Pedelacq et al. 2006)
- binding result: no binding
